Measurements from patent US20240018502A1.

Target: proteinase-activated receptor 2 (PAR-2) (UniProt P55085)
Test: cell-based or functional assay

Chain of proteinase-activated receptor 2 (PAR-2) (P55085 37-397 limits assumed): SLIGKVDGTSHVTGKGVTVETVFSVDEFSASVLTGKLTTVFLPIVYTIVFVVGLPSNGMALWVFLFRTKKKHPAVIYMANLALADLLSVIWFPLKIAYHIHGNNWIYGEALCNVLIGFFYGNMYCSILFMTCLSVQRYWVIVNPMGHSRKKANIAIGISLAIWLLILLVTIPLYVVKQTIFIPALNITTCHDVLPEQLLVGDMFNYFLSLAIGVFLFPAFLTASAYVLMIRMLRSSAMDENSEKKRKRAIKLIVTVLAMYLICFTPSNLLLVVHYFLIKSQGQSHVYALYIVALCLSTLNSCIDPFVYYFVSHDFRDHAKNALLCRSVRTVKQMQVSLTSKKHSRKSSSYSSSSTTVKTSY

Row | PAR-2 cell based assay ED50 and SKGR/SL kcat/Km, against wild-type MTSP-1 protease domain with C122S [fold] | PAR-2 Cell Based Assay ED50 [nM] | Binder
1 | > 30 |  | Modified MTSP-1 protease domain Q38H/I41A/D60bV/F60eR/Y60gW/D96I/F97N/T98G/F99L/C122S/G151N/Q175L/Q192D (enzyme) VVGGTDADEGEWPWQVSLHALGHGHACGASLISPNWLVSAAHCYIDVRGRRWSDPTQWTAFLGLHDQSQRSAPGVQERRLKRIISHPFFNINGLDYDIALLELEKPAEYSSMVRPISLPDASHVFPAGKAIWVTGWGHTQYGGTNALILQKGEIRVINQTTCENLLPQLITPRMMCVGFLSGGVDSCDGDSGGPLSSVEADGRIFQAGVVSWGDGCAQRNKPGVYTRLPLFRDWIKENTGV
2 | > 30 |  | Modified MTSP-1 protease domain Q38H/I41S/D60bT/F60eS/Y60gW/F97D/ins97aV/T98P/F99L/C122S/G151H/Q175L/Q192D (enzyme) VVGGTDADEGEWPWQVSLHALGHGHSCGASLISPNWLVSAAHCYIDTRGSRWSDPTQWTAFLGLHDQSQRSAPGVQERRLKRIISHPFFNDDVPLDYDIALLELEKPAEYSSMVRPISLPDASHVFPAGKAIWVTGWGHTQYGGTHALILQKGEIRVINQTTCENLLPQLITPRMMCVGFLSGGVDSCDGDSGGPLSSVEADGRIFQAGVVSWGDGCAQRNKPGVYTRLPLFRDWIKENTGV
3 |  | 430 | Q38H/I41A/D60bV/F60eR/Y60gW/F97T/ins97aE/T98G/F99L/C122S/G151H/Q175L/Q192D (enzyme) VVGGTDADEGEWPWQVSLHALGHGHACGASLISPNWLVSAAHCYIDVRGRRWSDPTQWTAFLGLHDQSQRSAPGVQERRLKRIISHPFFNDTEGLDYDIALLELEKPAEYSSMVRPISLPDASHVFPAGKAIWVTGWGHTQYGGTHALILQKGEIRVINQTTCENLLPQLITPRMMCVGFLSGGVDSCDGDSGGPLSSVEADGRIFQAGVVSWGDGCAQRNKPGVYTRLPLFRDWIKENTGV
4 |  | 560 | Q38H/I41A/D60bT/F60eK/Y60gW/F97T/ins97aE/T98G/F99L/C122S/G151H/Q175L/Q192D (enzyme) VVGGTDADEGEWPWQVSLHALGHGHACGASLISPNWLVSAAHCYIDTRGKRWSDPTQWTAFLGLHDQSQRSAPGVQERRLKRIISHPFFNDTEGLDYDIALLELEKPAEYSSMVRPISLPDASHVFPAGKAIWVTGWGHTQYGGTHALILQKGEIRVINQTTCENLLPQLITPRMMCVGFLSGGVDSCDGDSGGPLSSVEADGRIFQAGVVSWGDGCAQRNKPGVYTRLPLFRDWIKENTGV
5 | > 30 |  | Modified MTSP-1 protease domain Q38H/I41A/D60bV/F60eR/Y60gW/F97T/ins97aE/T98G/F99L/C122S/G151H/Q175L/Q192D (enzyme) VVGGTDADEGEWPWQVSLHALGHGHACGASLISPNWLVSAAHCYIDVRGRRWSDPTQWTAFLGLHDQSQRSAPGVQERRLKRIISHPFFNDTEGLDYDIALLELEKPAEYSSMVRPISLPDASHVFPAGKAIWVTGWGHTQYGGTHALILQKGEIRVINQTTCENLLPQLITPRMMCVGFLSGGVDSCDGDSGGPLSSVEADGRIFQAGVVSWGDGCAQRNKPGVYTRLPLFRDWIKENTGV
6 | > 30 |  | Modified MTSP-1 protease domain Q38H/I41A/D60bV/F60eR/Y60gW/D96P/F97W/ins97aN/T98G/F99L/C122S/G151N/Q175L/Q192E (enzyme) VVGGTDADEGEWPWQVSLHALGHGHACGASLISPNWLVSAAHCYIDVRGRRWSDPTQWTAFLGLHDQSQRSAPGVQERRLKRIISHPFFNPWNGLDYDIALLELEKPAEYSSMVRPISLPDASHVFPAGKAIWVTGWGHTQYGGTNALILQKGEIRVINQTTCENLLPQLITPRMMCVGFLSGGVDSCEGDSGGPLSSVEADGRIFQAGVVSWGDGCAQRNKPGVYTRLPLFRDWIKENTGV
7 | > 30 |  | Modified MTSP-1 protease domain I41R/F97T/Ins97aE/T98G/F99L/C122S/G151N/Q175L/Q192E (enzyme) VVGGTDADEGEWPWQVSLHALGQGHRCGASLISPNWLVSAAHCYIDDRGFRYSDPTQWTAFLGLHDQSQRSAPGVQERRLKRIISHPFFNDTEGLDYDIALLELEKPAEYSSMVRPISLPDASHVFPAGKAIWVTGWGHTQYGGTNALILQKGEIRVINQTTCENLLPQLITPRMMCVGFLSGGVDSCEGDSGGPLSSVEADGRIFQAGVVSWGDGCAQRNKPGVYTRLPLFRDWIKENTGV
8 | > 30 |  | Modified MTSP-1 protease domain Q38H/I41S/D60bT/F60eS/Y60gW/D96K/F97D/ins97aA/T98P/F99L/C122S/G151N/Q175L/Q192D (enzyme) VVGGTDADEGEWPWQVSLHALGHGHSCGASLISPNWLVSAAHCYIDTRGSRWSDPTQWTAFLGLHDQSQRSAPGVQERRLKRIISHPFFNKDAPLDYDIALLELEKPAEYSSMVRPISLPDASHVFPAGKAIWVTGWGHTQYGGTNALILQKGEIRVINQTTCENLLPQLITPRMMCVGFLSGGVDSCDGDSGGPLSSVEADGRIFQAGVVSWGDGCAQRNKPGVYTRLPLFRDWIKENTGV
9 |  | 640 | Q38H/I41S/D60bT/F60eS/Y60gW/F97D/ins97aV/T98P/F99L/C122S/G151H/Q175L/Q192D (enzyme) VVGGTDADEGEWPWQVSLHALGHGHSCGASLISPNWLVSAAHCYIDTRGSRWSDPTQWTAFLGLHDQSQRSAPGVQERRLKRIISHPFFNDDVPLDYDIALLELEKPAEYSSMVRPISLPDASHVFPAGKAIWVTGWGHTQYGGTHALILQKGEIRVINQTTCENLLPQLITPRMMCVGFLSGGVDSCDGDSGGPLSSVEADGRIFQAGVVSWGDGCAQRNKPGVYTRLPLFRDWIKENTGV
10 | > 30 |  | Modified MTSP-1 protease domain Q38H/I41S/D60bT/F60eS/Y60gW/D96Y/F97E/ins97aV/T98G/F99L/C122S/G151H/Q175L/Q192D (enzyme) VVGGTDADEGEWPWQVSLHALGHGHSCGASLISPNWLVSAAHCYIDTRGSRWSDPTQWTAFLGLHDQSQRSAPGVQERRLKRIISHPFFNYEVGLDYDIALLELEKPAEYSSMVRPISLPDASHVFPAGKAIWVTGWGHTQYGGTHALILQKGEIRVINQTTCENLLPQLITPRMMCVGFLSGGVDSCDGDSGGPLSSVEADGRIFQAGVVSWGDGCAQRNKPGVYTRLPLFRDWIKENTGV
11 |  | 2600 | I41R/F97T/Ins97aE/T98G/F99L/C122S/G151N/Q175L/Q192E (enzyme) VVGGTDADEGEWPWQVSLHALGQGHRCGASLISPNWLVSAAHCYIDDRGFRYSDPTQWTAFLGLHDQSQRSAPGVQERRLKRIISHPFFNDTEGLDYDIALLELEKPAEYSSMVRPISLPDASHVFPAGKAIWVTGWGHTQYGGTNALILQKGEIRVINQTTCENLLPQLITPRMMCVGFLSGGVDSCEGDSGGPLSSVEADGRIFQAGVVSWGDGCAQRNKPGVYTRLPLFRDWIKENTGV
12 | > 30 |  | Modified MTSP-1 protease domain Q38H/I41A/D60bV/F60eR/Y60gW/D96I/F97Y/ins97aN/T98G/F99L/C122S/G151N/Q175L/Q192D (enzyme) VVGGTDADEGEWPWQVSLHALGHGHACGASLISPNWLVSAAHCYIDVRGRRWSDPTQWTAFLGLHDQSQRSAPGVQERRLKRIISHPFFNIYNGLDYDIALLELEKPAEYSSMVRPISLPDASHVFPAGKAIWVTGWGHTQYGGTNALILQKGEIRVINQTTCENLLPQLITPRMMCVGFLSGGVDSCDGDSGGPLSSVEADGRIFQAGVVSWGDGCAQRNKPGVYTRLPLFRDWIKENTGV
13 | > 30 |  | Modified MTSP-1 protease domain Q38H/I41S/D60bT/F60eS/Y60gW/F97D/ins97aV/T98P/F99L/C122S/G151N/Q175L/Q192D (enzyme) VVGGTDADEGEWPWQVSLHALGHGHSCGASLISPNWLVSAAHCYIDTRGSRWSDPTQWTAFLGLHDQSQRSAPGVQERRLKRIISHPFFNDDVPLDYDIALLELEKPAEYSSMVRPISLPDASHVFPAGKAIWVTGWGHTQYGGTNALILQKGEIRVINQTTCENLLPQLITPRMMCVGFLSGGVDSCDGDSGGPLSSVEADGRIFQAGVVSWGDGCAQRNKPGVYTRLPLFRDWIKENTGV
14 | > 30 |  | Modified MTSP-1 protease domain Q38H/I41S/D60bT/F60eS/Y60gW/D96L/F97D/ins97aG/T98N/F99L/C122S/G151H/Q175L/Q192E (enzyme) VVGGTDADEGEWPWQVSLHALGHGHSCGASLISPNWLVSAAHCYIDTRGSRWSDPTQWTAFLGLHDQSQRSAPGVQERRLKRIISHPFFNLDGNLDYDIALLELEKPAEYSSMVRPISLPDASHVFPAGKAIWVTGWGHTQYGGTHALILQKGEIRVINQTTCENLLPQLITPRMMCVGFLSGGVDSCEGDSGGPLSSVEADGRIFQAGVVSWGDGCAQRNKPGVYTRLPLFRDWIKENTGV
15 | > 30 |  | Modified MTSP-1 protease domain Q38H/I41S/D60bT/F60eS/Y60gW/D96V/F97G/ins97aV/T98P/F99L/C122S/G151H/Q175L/Q192D (enzyme) VVGGTDADEGEWPWQVSLHALGHGHSCGASLISPNWLVSAAHCYIDTRGSRWSDPTQWTAFLGLHDQSQRSAPGVQERRLKRIISHPFFNVGVPLDYDIALLELEKPAEYSSMVRPISLPDASHVFPAGKAIWVTGWGHTQYGGTHALILQKGEIRVINQTTCENLLPQLITPRMMCVGFLSGGVDSCDGDSGGPLSSVEADGRIFQAGVVSWGDGCAQRNKPGVYTRLPLFRDWIKENTGV
16 | > 30 |  | Modified MTSP-1 protease domain Q38H/I41A/D60bV/F60eR/Y60gW/F97T/ins97aE/T98G/F99L/C122S/G151N/Q175L/Q192D (enzyme) VVGGTDADEGEWPWQVSLHALGHGHACGASLISPNWLVSAAHCYIDVRGRRWSDPTQWTAFLGLHDQSQRSAPGVQERRLKRIISHPFFNDTEGLDYDIALLELEKPAEYSSMVRPISLPDASHVFPAGKAIWVTGWGHTQYGGTNALILQKGEIRVINQTTCENLLPQLITPRMMCVGFLSGGVDSCDGDSGGPLSSVEADGRIFQAGVVSWGDGCAQRNKPGVYTRLPLFRDWIKENTGV
17 | > 30 |  | Modified MTSP-1 protease domain Q38H/I41S/D60bT/F60eS/Y60gW/D96K/F97D/ins97aA/T98P/F99L/C122S/G151H/Q175L/Q192D (enzyme) VVGGTDADEGEWPWQVSLHALGHGHSCGASLISPNWLVSAAHCYIDTRGSRWSDPTQWTAFLGLHDQSQRSAPGVQERRLKRIISHPFFNKDAPLDYDIALLELEKPAEYSSMVRPISLPDASHVFPAGKAIWVTGWGHTQYGGTHALILQKGEIRVINQTTCENLLPQLITPRMMCVGFLSGGVDSCDGDSGGPLSSVEADGRIFQAGVVSWGDGCAQRNKPGVYTRLPLFRDWIKENTGV
18 | > 30 |  | Modified MTSP-1 protease domain Q38H/I41A/D60bT/F60eK/Y60gW/F97T/ins97aE/T98G/F99L/C122S/G151H/Q175L/Q192D (enzyme) VVGGTDADEGEWPWQVSLHALGHGHACGASLISPNWLVSAAHCYIDTRGKRWSDPTQWTAFLGLHDQSQRSAPGVQERRLKRIISHPFFNDTEGLDYDIALLELEKPAEYSSMVRPISLPDASHVFPAGKAIWVTGWGHTQYGGTHALILQKGEIRVINQTTCENLLPQLITPRMMCVGFLSGGVDSCDGDSGGPLSSVEADGRIFQAGVVSWGDGCAQRNKPGVYTRLPLFRDWIKENTGV
19 |  | 420 | Q38H/I41S/D60bT/F60eS/Y60gW/D96K/F97D/ins97aA/T98P/F99L/C122S/G151H/Q175L/Q192D (enzyme) VVGGTDADEGEWPWQVSLHALGHGHSCGASLISPNWLVSAAHCYIDTRGSRWSDPTQWTAFLGLHDQSQRSAPGVQERRLKRIISHPFFNKDAPLDYDIALLELEKPAEYSSMVRPISLPDASHVFPAGKAIWVTGWGHTQYGGTHALILQKGEIRVINQTTCENLLPQLITPRMMCVGFLSGGVDSCDGDSGGPLSSVEADGRIFQAGVVSWGDGCAQRNKPGVYTRLPLFRDWIKENTGV
20 |  | 1.4 | Wild-type MTSP-1 protease domain with C122S (enzyme) VVGGTDADEGEWPWQVSLHALGQGHICGASLISPNWLVSAAHCYIDDRGFRYSDPTQWTAFLGLHDQSQRSAPGVQERRLKRIISHPFFNDFTFDYDIALLELEKPAEYSSMVRPISLPDASHVFPAGKAIWVTGWGHTQYGGTGALILQKGEIRVINQTTCENLLPQQITPRMMCVGFLSGGVDSCQGDSGGPLSSVEADGRIFQAGVVSWGDGCAQRNKPGVYTRLPLFRDWIKENTGV
